# Legend:
# [1] = target: T1, Aβ (10-35) formed into amyloid fibrils (nucleus) (Homo sapiens, UniProt P05067); test: Amplification, with the artificial peptide, of formation of fibrils of Aβ (10-35) formed into fibrils, monitored with ThT; format: biochemical; details: peptide 200 μM, Aβ (10-35) nucleus 10 μM, room temperature; for increase in ThT fluorescent intensity in the presence of the nucleus: after 1 day
# T1 construct: peptide [Aβ (10-35)] consisting of 10 to 35 residues of amyloid β peptide; made in house; host or cells: chemical synthesis (Fmoc solid phase method)
# Protocol: The amplification of formation of fibrils of Aβ (10-35) formed into amyloid fibrils was attempted by using each of the artificial peptides synthesized in Example 1. A small amount of Aβ (10-35) previously formed into fibrils under the condition in (1-2) above was added to a solution of the artificial peptide, and the amplification of formation of fibrils was monitored with ThT.
# Starting solution used: [peptide]=2 mM solution in TFE
# Concentrations: [peptide]=200 μM, [Aβ (10-35) (nucleus)]=10 μM • (20 mM Tris-HCl buffer (pH 7.4))
# (§1) Aβ (10-35) (nucleus) was homogenized by sonication for 1 hour before dilution.
# Temperature: room temperature
# Concentration: [peptide]=5 μM, [ThT]=6 μM • (20 mM Tris-HCl buffer (pH 7.4))
# Stirring conditions: The whole volume of the reaction mixture was sufficiently stirred with a Pasteur pipette before sampling, and then sufficiently stirred in a cell with a Pasteur pipette.
# Excitation wavelength: 440 nm, detection wavelength: 482 nm.
# [2] = Evaluation, with ThT, of the ability of the artificial peptide used alone to form amyloid fibrils; details: peptide 200 μM alone; for time required to finish formation of fibrils at 40° C. compared with ordinary temperatures: incubation at 40° C.; for time having elapsed until the increase in fluorescent intensity was finished: incubation at room temperature
# Protocol: The peptide (10-4F), (10-3L), (10-3F), (10-3A), Aβ (14-23) or Aβ (10-35) synthesized in Example 1, which was contained alone in an aqueous solution, was evaluated for its ability to form amyloid fibrils. The secondary structure was examined using a CD spectrum, and the ability to form amyloid fibrils was evaluated with dye thioflavin T (ThT) binding specifically to amyloid fibrils to emit fluorescence, under a transmission electron microscope (TEM). The ability of each artificial peptide obtained in Example 1 to form amyloid fibrils when used alone was evaluated using ThT. Starting solution used: [peptide]=2 mM solution in TFE Concentration: [peptide]=200 μM in 20 mM Tris-HCl buffer (pH 7.4) Temperature: room temperature or 40° C. Concentrations: [peptide]=5 μM, [ThT]=6 μM (20 mM Tris-HCl buffer (pH 7.4)) Temperature: room temperature Stirring conditions: The whole volume of the reaction mixture was sufficiently stirred with a Pasteur pipette before sampling, and then sufficiently stirred in a cell with a Pasteur pipette. Excitation wavelength: 440 nm, detection wavelength: 482 nm. The formation of fibrils was slow at ordinary temperatures to make it difficult to monitor the change with time, so the ability of each artificial peptide used alone to form fibrils was then evaluated at an elevated temperature of 40° C. estimated to accelerate formation of fibrils.
# [3] = Measurement of the secondary structure of each peptide by a CD spectrum; format: physicochemical; details: peptide 100 μM, 20 mM Tris-HCl buffer (pH 7.4); for secondary structure by CD spectrum: CD at 25° C.; for CD spectral change with time: incubated at ordinary temperatures
# Protocol: The peptide (10-4F), (10-3L), (10-3F), (10-3A), Aβ (14-23) or Aβ (10-35) synthesized in Example 1, which was contained alone in an aqueous solution, was evaluated for its ability to form amyloid fibrils. The secondary structure was examined using a CD spectrum, and the ability to form amyloid fibrils was evaluated with dye thioflavin T (ThT) binding specifically to amyloid fibrils to emit fluorescence, under a transmission electron microscope (TEM).
# Solutions of the respective synthesized peptides, 2 mM, in trifluoroethanol (TFE) were prepared and used as stock solutions respectively. Each stock solution was diluted to a final peptide concentration of 100 μM with 20 mM Tris-HCl buffer (pH 7.4), then incubated at ordinary temperatures, and measured for CD spectrum at 25° C. (FIG. 1).
# [4] = target: T1, Aβ (10-35) formed into amyloid fibrils (nucleus); test: Amplification of fibrils of Aβ (10-35) formed into amyloid fibrils, measurement using a plate reader; format: biochemical; details: high to low; for rank of difference in fluorescence intensity between nucleus added and not added (ability to amplify fibrils): after completion of fluorescent intensity change; for rank of increase in fluorescent intensity among peptides to which the nucleus had been added: with Aβ (10-35) nucleus
# Protocol: A test for the amplification of fibrils of Aβ (10-35) formed into amyloid fibrils by using the artificial peptide of the present invention in Example 2 was attempted using a plate reader.
# Starting solution used: [peptide]=5 mM solution in DMSO
# Concentrations: [peptide]=20 μM, [Aβ (10-35) (nucleus)]=2.5 μM • (20 mM Tris-HCl buffer (pH 7.4))
# as §1
# Concentrations: [peptide]=18 μM, [ThT]=25 μM • (20 mM Tris-HCl buffer (pH 7.4))
# Stirring conditions: The whole volume of the reaction mixture was stirred 3 times for 2 seconds with a vortex and then (100 μl×2) was stirred with a micropipette in a well before measurement.
# Excitation wavelength: 440 nm, detection wavelength: 490 nm.
Substance,fluorescent intensity with the nucleus relative to that in the absence of the nucleus [1],increase in ThT fluorescent intensity in the presence of the nucleus [1],time required to finish formation of fibrils at 40° C. compared with ordinary temperatures [2],time having elapsed until the increase in fluorescent intensity was finished [2],secondary structure by CD spectrum [3],CD spectral change with time [3],rank of difference in fluorescence intensity between nucleus added and not added (ability to amplify fibrils) [4],rank of increase in fluorescent intensity among peptides to which the nucleus had been added [4]
Ac-Lys-Gln-Lys-Leu-Leu-Leu-Leu-Leu-Glu-Glu-NH2 (Ac-KQKLLLLLEE-NH2) [10-3L],twice as high,significant increase in fluorescent intensity,significantly shortened,3 days,spectra unique to β-sheet structure,increased signals with time,highest,"order of 10-4F, 10-3L, 10-3F, and 10-3A"
"Aβ (10-35): peptide consisting of 10 to 35 residues of amyloid β peptide, used as the nucleus of amyloid fibril (YEVHHQKLVFFAEDVGSNKGAIIGLM; Amyloid-beta protein 42; UniProt P05067 681-706, looked up, fragment) [reference compound]",,,,,spectra unique to β-sheet structure,increased signals with time,,
Ac-Lys-Gln-Lys-Leu-Leu-Ala-Leu-Leu-Glu-Glu-NH2 (Ac-KQKLLALLEE-NH2) [10-3A],,no increase in fluorescent intensity,,,spectra unique to random coil state,no spectral change with time,"order of 10-3L, 10-4F, 10-3F, and 10-3A","order of 10-4F, 10-3L, 10-3F, and 10-3A"
"Aβ (14-23): peptide consisting of 14 to 23 residues of amyloid β peptide (HQKLVFFAED; Amyloid-beta protein 42; UniProt P05067 685-694, looked up, fragment)",,,significantly shortened,,spectra unique to random coil state,no spectral change with time,,
Ac-Lys-Gln-Lys-Leu-Leu-Leu-Phe-Leu-Glu-Glu-NH2 (Ac-KQKLLLFLEE-NH2) [10-4F],,significant increase in fluorescent intensity,hardly changed,about 6 days,spectra unique to β-sheet structure,increased signals with time,"order of 10-3L, 10-4F, 10-3F, and 10-3A",largest increase in fluorescent intensity
Ac-Lys-Gln-Lys-Leu-Leu-Phe-Leu-Leu-Glu-Glu-NH2 (Ac-KQKLLFLLEE-NH2) [10-3F],,no increase in fluorescent intensity,hardly changed,about 6 days,spectra unique to β-sheet structure,increased signals with time,"order of 10-3L, 10-4F, 10-3F, and 10-3A","order of 10-4F, 10-3L, 10-3F, and 10-3A"
